One data set concerns the target T1, FmUGT1 (Pleuropterus multiflorus, UniProt A0A9E7V1Q5).
T1 construct: gene UGT; full length, 533 residues (ORF 1602 bp); pET-32a (BamH I) in E. coli Transetta (DE3), Ni-NTA purified
The experiment in a line: HPLC glycosylation assay; Lineweaver-Burk plot. In kind it is biochemical. Particulars: 0.8 mM UDP-glucose; 0.05 M Tris-HCl; 5-480 μM substrate; pH and temperature of kinetics not stated; substrate assigned from methods. From the text: HPLC glycosylation assay; Lineweaver-Burk plot on FmUGT1 | using THSG and emodin as the substrate for FmUGT1 and FmUGT2, respectively

Substrate in data set [1]: Cc1cc(O)c2c(c1)C(=O)c1cc(O)cc(O)c1C2=O
The experiment in a line: HPLC glycosylation assay; Lineweaver-Burk plot. In kind it is biochemical, Pleuropterus multiflorus. The conditions noted are these: 0.8 mM UDP-glucose; 0.05 M Tris-HCl; 5-480 μM substrate; pH and temperature of kinetics not stated; substrate assigned from methods. The text has this: HPLC glycosylation assay; Lineweaver-Burk plot on FmUGT2 | using THSG and emodin as the substrate for FmUGT1 and FmUGT2, respectively

Data on two molecules can be found in paper PMC9765892, “Molecular identification and functional characterization of two glycosyltransferases genes from Fallopia multiflora” (Frontiers in Plant Science, 2022).

The Km is the concentration of substrate that gives half-maximal velocity. Broadly, the kcat is the maximal rate divided by the concentration of active sites.

T1 sequence (A0A9E7V1Q5 entry or part of it): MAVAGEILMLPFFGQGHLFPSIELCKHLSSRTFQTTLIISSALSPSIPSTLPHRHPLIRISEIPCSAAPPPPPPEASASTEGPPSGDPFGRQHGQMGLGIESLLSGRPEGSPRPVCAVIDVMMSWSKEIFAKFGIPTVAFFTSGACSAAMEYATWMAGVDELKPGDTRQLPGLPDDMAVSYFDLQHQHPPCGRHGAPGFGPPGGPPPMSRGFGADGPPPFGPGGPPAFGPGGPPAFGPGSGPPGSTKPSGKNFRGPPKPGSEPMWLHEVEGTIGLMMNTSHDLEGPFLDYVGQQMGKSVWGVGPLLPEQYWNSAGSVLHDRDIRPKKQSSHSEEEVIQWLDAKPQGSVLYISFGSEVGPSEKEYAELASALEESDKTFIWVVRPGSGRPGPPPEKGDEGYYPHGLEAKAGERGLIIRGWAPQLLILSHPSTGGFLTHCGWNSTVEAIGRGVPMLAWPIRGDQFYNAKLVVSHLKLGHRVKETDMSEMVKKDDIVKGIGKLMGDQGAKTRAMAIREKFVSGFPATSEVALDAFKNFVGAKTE

Take `OC[C@H]1O[C@@H](Oc2c(O)cc(O)cc2/C=C/c2ccc(O)cc2)[C@H](O)[C@@H](O)[C@@H]1O` [compound 1, THSG]: the Michaelis constant (Km) on FmUGT1 is 236 µM.

B1: FmUGT2 (Pleuropterus multiflorus) (protein)
chain: MTISKTANLVLIPAPGMGHLAPAIELAKHLVARDPRLSITVLLIKGFVPEETVESYILSLKSNSSLLNQGIGFIDIPQIDLNSARPSFLTHMNAYQPKVKEAIEGLRSAGPLPVAGLLVDMFCTSTIDVATELGLPSYVFFTSGAGLLRLFFHLHGLGVDVAQEYDVVRSPDTLLEIPGFRNPVPVKVLPGRFLSKDGQSSTFLRLADKFRQAKGILVNTCMEIDRDLIQSMSQQDIEIPPIYPVGPILNLPTEDDHGHDDDESSGKDPITRWLDDQPPRSVVFLCFGSRGTFNDTQIKEIAVGLERSGQRFLWSLRQRPGETGVPLELDDPSKVLPEGFFERTAEKGRVIGWAPQARVLAHKAVGAFVSHCGWNSTLESFWYGVPIAAWPIYAEQQLNAFVLVKELGLATEIRIDYCQDFGINMVVKAEEVEDGINKAMKETEVKKKVKEMCDKARKALEEGGSSYESIGRFIEVVFKNLP
notes: full length, 482 residues (ORF 1449 bp); pET-32a (BamH I) in E. coli Transetta (DE3), Ni-NTA purified
For B1, in data set [1], the Km came out at 185 µM and the kcat came out at 0.1413 s⁻¹.
